Source: patent US20230094083A1 (YEDA RESEARCH AND DEVELOPMENT, published 2023)

How the values were obtained:
[1] = target: T1, human Grp94 on the cell surface (senescent IMR-90 human lung fibroblasts; IPF patient lung fibroblasts) (human, UniProt P14625 22-803); experiment: flow cytometry, senescent against proliferating human IMR-90 cells
T1 construct: whole, on cells; also called cell surface Grp94; Grp94 on the cell surface of senescent IMR-90 cells

[2] = target: T1, human Grp94 on the cell surface …; experiment: flow cytometry on senescent human IMR-90 cells
[3] = target: T2, mouse Grp94 on the cell surface (Meth A sarcoma cells; senescent primary mouse lung fibroblasts) (mouse, UniProt P08113 22-802); experiment: flow cytometry, senescent against proliferating primary mouse lung fibroblasts
T2 construct: whole, on cells; also called Grp94 expressed on the surface of Meth A cells

[4] = target: T2, mouse Grp94 on the cell surface (Meth A …); experiment: flow cytometry on senescent primary mouse lung fibroblasts
[5] = target: T2, mouse Grp94 on the cell surface (Meth A …); experiment: ranking of clones by flow cytometry on Meth A sarcoma cells
[6] = target: T1, human Grp94 on the cell surface …; experiment: immunofluorescence on senescent human IMR-90 cells
[7] = target: T2, mouse Grp94 on the cell surface (Meth A …); experiment: flow cytometry, hybridoma supernatant diluted 1:2 on Meth A sarcoma cells
Protocol: (§1) Mouse Meth A sarcoma cells (Cat. 400284 CLS, Germany) were cultured using standard tissue culture conditions in RPMI-1640. Cells were seeded at 1×10⁵ in 100 microliter FACS buffer in 96 well U bottom FACS plates, pelleted and resuspended in 100 microliters neat or 1 in 2 diluted supernatant sample for 30 minutes at 4° C. Cells were washed twice with PBS and resuspended in 100 microliter secondary antibody, AF647 conjugated goat anti-mouse IgG A21236 (Thermo Fisher Scientific) at 2 micrograms/ml in FACS buffer for 30 minutes at 4° C. Cells were washed twice with PBS and resuspended in 100 microliters water containing 10% CellFix (Becton Dickinson, UK). Median fluorescence intensity was measured using an Attune NxT Acoustic Focusing Cytometer (Thermo Fisher Scientific) with autosampler using acquisition parameters optimized with unstained cells and secondary labeled cells: FSC:100, SSC:340, FL1:370. The acquisition rate was 100 microliter/minute stopping at 10,000 R1 events. Positive controls consisted of commercially sourced mouse anti-Grp94 antibodies MA1-10892 (Thermo Fisher Scientific) and MAB7606 (R&D System) at 2 micrograms/ml while negative control consisted of Meth A cells incubated with secondary antibody alone.

[8] = target: T2, mouse Grp94 on the cell surface (Meth A …); experiment: flow cytometry, neat hybridoma supernatant on Meth A sarcoma cells
Protocol: as §1

[9] = target: human Grp94 on the cell surface (senescent IMR-90 human lung fibroblasts; IPF patient lung fibroblasts) (human) (UniProt P14625); experiment: cell-based or functional assay
[10] = target: T3, recombinant human Grp94 (Creative Biomart, USA) (human, UniProt P14625 22-803, limits assumed); experiment: Biacore single cycle kinetics, antibody captured, Grp94 as analyte
T3 construct: Bought recombinant protein; It served as immunogen, ELISA coat, Biacore analyte and the immobilised ligand in binning; also called rHGrp94; rhGrp94
Protocol: Biacore single cycle analysis was performed on supernatants where the monoclonal antibody was captured with Fc on the surface as the ligand and Grp94 flowed over as the analyte. Kinetic experiments were performed on a Biacore T200 running Biacore T200 Control software V2.0.1 and Evaluation software V3.0 (GE Healthcare, Sweden). All single cycle kinetic experiments were run at 25° C. with HBS-P+ running buffer (pH 7.4) (GE Healthcare, UK) containing 1 mg/ml BSA.
Antibodies were diluted in running buffer and at the start of each cycle were loaded onto Fc2, Fc3, and Fc4 of the CM5 chip coupled with an anti-mouse capture antibody using standard amine chemistry (GE Healthcare, UK). IgGs were captured at a flow rate of 10 microliter/minute to give an immobilization level (RL) of approximately 160RU. The surface was then allowed to stabilize. Single cycle kinetic data was obtained with Grp94 (Creative BioMart, USA) as the analyte at a flow rate of 30 microliter/min to minimize any potential mass transport limitations. […] The association phase for the three injections of increasing concentrations of Grp94 was monitored for 150 seconds each time and a single dissociation phase was measured for 900 seconds following the last injection of Grp94. […]

T2 sequence (P08113 22-802): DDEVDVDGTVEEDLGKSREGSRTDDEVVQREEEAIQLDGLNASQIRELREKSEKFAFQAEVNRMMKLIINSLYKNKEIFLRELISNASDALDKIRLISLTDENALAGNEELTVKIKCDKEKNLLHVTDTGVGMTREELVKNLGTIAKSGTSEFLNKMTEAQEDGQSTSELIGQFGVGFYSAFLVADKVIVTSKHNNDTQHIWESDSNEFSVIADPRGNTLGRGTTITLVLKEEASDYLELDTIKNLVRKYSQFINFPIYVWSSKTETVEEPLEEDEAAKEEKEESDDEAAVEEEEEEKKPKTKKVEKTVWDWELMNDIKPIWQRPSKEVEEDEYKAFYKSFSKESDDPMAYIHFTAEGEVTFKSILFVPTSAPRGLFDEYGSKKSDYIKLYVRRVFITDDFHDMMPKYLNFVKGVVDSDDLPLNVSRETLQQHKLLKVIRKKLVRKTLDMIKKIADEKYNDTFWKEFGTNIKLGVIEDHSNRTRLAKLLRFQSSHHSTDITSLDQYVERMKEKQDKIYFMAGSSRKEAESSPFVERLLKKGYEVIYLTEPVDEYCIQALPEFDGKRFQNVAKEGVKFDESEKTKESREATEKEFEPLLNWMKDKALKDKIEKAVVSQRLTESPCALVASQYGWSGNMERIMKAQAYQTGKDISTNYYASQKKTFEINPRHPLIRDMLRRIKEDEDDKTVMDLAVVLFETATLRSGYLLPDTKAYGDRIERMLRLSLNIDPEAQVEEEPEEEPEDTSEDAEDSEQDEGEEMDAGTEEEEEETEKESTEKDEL
T1 sequence (P14625 22-803): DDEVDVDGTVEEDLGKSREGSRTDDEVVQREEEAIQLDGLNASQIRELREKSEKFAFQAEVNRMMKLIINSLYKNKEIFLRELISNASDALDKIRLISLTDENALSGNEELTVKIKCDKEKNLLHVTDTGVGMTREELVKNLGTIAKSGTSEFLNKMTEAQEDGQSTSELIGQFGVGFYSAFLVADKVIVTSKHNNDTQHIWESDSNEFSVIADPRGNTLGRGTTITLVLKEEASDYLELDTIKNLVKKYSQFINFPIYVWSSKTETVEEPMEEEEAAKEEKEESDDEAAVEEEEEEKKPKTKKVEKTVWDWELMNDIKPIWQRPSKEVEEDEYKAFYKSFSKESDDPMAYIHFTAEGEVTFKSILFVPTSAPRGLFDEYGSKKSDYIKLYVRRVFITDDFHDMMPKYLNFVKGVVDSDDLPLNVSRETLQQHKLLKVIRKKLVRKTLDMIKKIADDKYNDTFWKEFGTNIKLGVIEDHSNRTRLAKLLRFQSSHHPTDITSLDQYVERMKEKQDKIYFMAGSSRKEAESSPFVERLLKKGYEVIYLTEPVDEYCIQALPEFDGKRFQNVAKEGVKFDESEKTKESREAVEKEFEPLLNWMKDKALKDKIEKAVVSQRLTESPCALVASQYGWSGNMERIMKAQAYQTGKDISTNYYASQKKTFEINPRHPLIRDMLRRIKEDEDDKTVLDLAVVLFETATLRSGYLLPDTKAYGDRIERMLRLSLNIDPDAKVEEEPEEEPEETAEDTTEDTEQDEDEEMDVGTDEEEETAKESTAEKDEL
T3 sequence (P14625 22-803 limits assumed): as the sequence (P14625 22-803) above
human Grp94 on the cell surface (senescent IMR-90 human lung fibroblasts; IPF patient lung fibroblasts) (human), sequence (P14625 22-803): as above

Human FACS ratio (senescent cells / proliferating cells) [1]	Human FACS plot (score 1-9, 1 = best) [2]	Mouse FACS ratio (senescent cells / proliferating cells) [3]	Mouse FACS (score 1-9, 1 = best) [4]	Top 24 by Meth A (rank score, 1 = best binder) [5]	Human IF (score 1-9, 1 = best) [6]	Meth A Dilution 1:2 (mean fluorescence intensity) [7]	Meth A Binding (mean fluorescence intensity) [8]	ADCC reporter-gene assay (Promega, mouse FcgRIV effector cells), activation of the reporter; target cells senescent IMR-90 [9]	mFcγRIV ADCC Reporter Bioassay (Promega), activation of the reporter gene; target cells senescent IMR-90 [9]	Kd [10]	Binder
6 ratio	1 score	7 ratio	4 score	18 rank	4 score	688 RFU (mean fluorescence intensity)	732 RFU (mean fluorescence intensity)				anti-Grp94 monoclonal antibody clone 9A3 (antibody, mouse IgG2a, V domains shown, Mouse hybridoma antibody, tested as hybridoma supernatant) VH: EVKLVESGGGLVKPGGSLKLSCAASGFTFRTYAMSWVRQTPEKRLEWVATITTGGPTYYPDNVKGRFTISRDNDRNILDLQMNSLRSEDTATYYCLRGATTGDYWGQGTTLIVSS VL: DIVMTQSHKFMFTSVGDRVSITCKASHDVSTAVAWYQQKPGQYPKLLIYWASNRYTGVPDRFTGSGSGMDFTFTISSVQAEDLAVYYCQQHSSTPYTFGGGTRLEIK
								20 fold	20 fold		optimized anti-Grp94 4C2 antibody (mouse IgG2a, Fc substitutions S239D and I332E, afucosylated) (antibody, part only; not given: mutant mouse IgG2a and light constant, V domains shown, not shown: another chain or arm of the molecule; a dimerising Fc or GST, The Fc substitutions S239D and I332E (paragraph 258 prints the second as 1332E; paragraph 22 has I332E) and the afucosylated Fc glycan lie in the constant region. The letters given do not carry them.) VH: EVQLVETGGGLVQPKGSLKLSCAASGFTFNTNAMNWVRQAPGKGLEWVARIRSKSNNYATYYADSVKDRFTISRDDSQSMLFLQMNNLKTEDTAMYYCVRDTLAWFAYWGQGTLVTVSA VL: QIVLTQSPAIMSASPGEKVTITCSASSSVSYMHWFQQKPDTSPKLWIYSTSNLASGVPARFSASGSGTSYSLTISRMEAEDAATYYCQQKTSYPPTFGAGTKLELK
1 ratio	4 score	5 ratio		1 rank	1 score	1990 RFU (mean fluorescence intensity)	2690 RFU (mean fluorescence intensity)			3.47 nM	anti-Grp94 monoclonal antibody clone 4C2 (antibody, V domains shown, Mouse hybridoma antibody; It was tested as hybridoma supernatant in the screens (ELISA, Meth A FACS, Biacore, binning); also called 4C2 clone hybridoma supernatant; monoclonal antibody 4C2) VH: EVQLVETGGGLVQPKGSLKLSCAASGFTFNTNAMNWVRQAPGKGLEWVARIRSKSNNYATYYADSVKDRFTISRDDSQSMLFLQMNNLKTEDTAMYYCVRDTLAWFAYWGQGTLVTVSA VL: QIVLTQSPAIMSASPGEKVTITCSASSSVSYMHWFQQKPDTSPKLWIYSTSNLASGVPARFSASGSGTSYSLTISRMEAEDAATYYCQQKTSYPPTFGAGTKLELK
3 ratio	3 score	6 ratio		12 rank	3 score	746 RFU (mean fluorescence intensity)	819 RFU (mean fluorescence intensity)			2.5 nM	anti-Grp94 monoclonal antibody clone 5B2 (antibody, mouse IgG2a, V domains shown, Mouse hybridoma antibody, tested as hybridoma supernatant) VH: EVQLVETGGGLVQPKGSLKLSCAASGFTFNTNAMNWVRQAPGKGLEWVARIRSKSNNYATYYADSVKDRFTISRDDSQNMFYLQMNNLKTEDTAMYYCVRDTATWFAYWGQGTLVTVSA VL: QIVLTQSPALMSASPGEKVTIACSASSSVSYMHWFQQKPGTSPKLWIYSTSNLASGVPARFSGSGSGTSYSLTISRMEAEDAATYYCQQKTSYPPTFGSGTKLEIK
